This note sets out measurements from article PMC7937890.

The subject of this data set is T1, RsmE-His6 (Pseudomonas putida KT2440), ORF:50140dbc.
T1 sequence: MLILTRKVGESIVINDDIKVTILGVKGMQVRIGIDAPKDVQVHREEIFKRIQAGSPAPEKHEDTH
Briefly: EMSA. Conditions: 1x binding buffer (composition only cited), RNA 5 or 10 nM, 30 min at 30 C, with or without 100-fold unlabeled competitor RNA; 6% non-denaturing PAGE in TBE at …. On the technique in general: Mobility shift assays separate free from complexed probe on a gel.

On to “GGGUUCUAAGAUUGGAUCCACUGUUAAUCUUUACCACAUGGACGUUGCGCAGGAAGCGCAAAGGACAGAUCAAGGACGACGACGAAGGACCACCUGCCAGGAUGGCGGGGCGAUACGGAUGUCACAGGGAAACAGUCUGGAAAACCCCGCUUCGGCGGGGGGGGGUUUUUUUUGCGGCCGCUUUU [rsmY full-length RNA]”, for which the binding entry is listed as “binds”.
